Test results published in patent US20230358760, “APTAMERS THAT TARGET CXCL9” (RHEINISCHE FRIEDRICH-WILHELMS-UNIVERSITÄt BONN, published 2023).

Assays:
[1] = target: T1, CXCL9 (MIG) (Homo sapiens) (UniProt Q07325); experiment: ELONA; settings: n=2
T1 sequence: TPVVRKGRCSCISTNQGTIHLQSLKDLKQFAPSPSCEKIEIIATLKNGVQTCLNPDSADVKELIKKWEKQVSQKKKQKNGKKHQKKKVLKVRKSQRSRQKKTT

CXCL11 (Homo sapiens) = target: T2, CXCL11 (Homo sapiens) (UniProt O14625); experiment: ELONA; settings: n=2
T2 sequence: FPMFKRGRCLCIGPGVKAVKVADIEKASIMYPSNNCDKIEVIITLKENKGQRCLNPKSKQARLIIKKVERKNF

CXCL9 (MIG) [2] = target: T3, CXCL9 (MIG) (Homo sapiens, UniProt Q07325 Q07325:23-125); experiment: flow; scrambled non-binding control; settings: tags: Origene; immobilised on magnetic beads for flow cytometry; label: 5' Cy5
T3 sequence: T1 sequence
Description: The binding of indole-modified aptamer of SEQ ID NO: 5 (I29 In), unmodified aptamer of SEQ ID NO: 6 (G123 DNA), and indole-modified aptamer of SEQ ID NO: 4 (G123 In) to pro-inflammatory chemokine CXCL9 was determined in competition assay. 100 nM Cy-5 labelled DNA was incubated simultaneous with 1 μM unlabelled DNA and thus competed for binding. After incubation the remaining Cy5 labelled DNA on CXCL9-magnetic beads was analysed with flow cytometry as described above. As control, Cy5-labeled DNA without competitor was analysed and was used to normalize data.
Binding of Cy5 labelled scrambled sequence is used as non-binding control. (n=2, mean±SD).

CXCL11 = target: T4, CXCL11 (Homo sapiens, UniProt O14625 O14625:22-94); experiment: ELONA; n=2; settings: tags: Cell guidance system; label: 5' biotin or Cy5; G4
T4 sequence: T2 sequence
Description: (§1) 20 μl of 1 μg/ml protein in bicarbonate/carbonate buffer pH 9.6 was coated overnight at 4° C. on 96 well half area plates (Greiner Bio). After washing three times with 100 μL WB1 (PBS+0.05% Tween 20), wells were blocked with 1% BSA in PBS for 2 h at RT with slight agitation. […] Wells were washed once with 100 μL WB2 (138 mM NaCl, 5 mM KCl, 1.5 mM KH₂PO₄, 8.1 mM Na₂HPO₄, 170 mM urea, 7 mM ammonium acetate, 1 mM MgCl₂, 1 mM CaCl₂), pH 6.5).
(§2) DNA was diluted to respective concentration in SB1 and 20 μL is transferred onto the wells in duplicates (protein and BSA wells). After incubation of 30 min at RT and slight agitation, the wells were washed two times with 100 μL WB1 and are incubated with 20 μL of streptavidin-horseradish peroxidase (SA-HRP) solution (1:1000 in PBS, GE Healtcare). After 30 min incubation at RT the wells were washed again twice with 100 μL WB1. Finally, the complex was incubated with 1-Step ABTS (ThermoFisher) for 15-40 min at RT, slight agitation. Absorbance at 405 nm was read out with a Tecan Nanoquant plate reader. Binding of DNA to BSA background was subtracted from binding of DNA to protein sample.

CCL3 = CCL3 (Homo sapiens, UniProt P10147 P10147:24-92); experiment: ELONA; DNA at 2x KD; settings: tags: Peprotech; label: 5' biotin or Cy5; G4
Sequence of CCL3 (P10147 24-92, one chain of several): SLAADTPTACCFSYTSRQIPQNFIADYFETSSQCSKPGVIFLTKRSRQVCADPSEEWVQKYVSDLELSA
Description: as §1, §2
(§3) Binding of aptamers of SEQ ID NO: 4 (G123) and SEQ ID NO: 5 (I29) to different proteins was determined using ELONA. […] The pro-inflammatory chemokines CXCL9, CXCL10, CXCL11, and CXCL1 were used, as well as soluble interleukin-2 receptor (sCD25), C-reactive protein (CRP), C—C motif chemokine ligand 17 (CCL17), C—C motif chemokine ligand 22 (CCL22), C—C motif chemokine ligand 3(CCL3) and human serum albumin (HAS).

CXCL1 = CXCL1 (Homo sapiens, UniProt P09341 P09341:35-107); experiment: ELONA; DNA at 2x KD; settings: tags: Cell guidance system; label: 5' biotin or Cy5; G4
Sequence of CXCL1 (P09341 35-107, one chain of several): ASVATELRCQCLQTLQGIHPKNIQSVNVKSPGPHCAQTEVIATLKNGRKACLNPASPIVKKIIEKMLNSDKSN
Description: as §1, §2, §3

CCL17 = CCL17 (Homo sapiens, UniProt Q92583 Q92583:24-94); experiment: ELONA; DNA at 2x KD; settings: tags: BioLegend; label: 5' biotin or Cy5; G4
Sequence of CCL17 (Q92583 24-94, one chain of several): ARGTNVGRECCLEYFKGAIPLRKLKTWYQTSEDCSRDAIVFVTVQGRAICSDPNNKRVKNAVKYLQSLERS
Description: as §1, §2, §3

CCL22 = target: T5, CCL22 (Homo sapiens, UniProt O00626 O00626:25-93); experiment: ELONA; DNA at 2x KD; settings: tags: BioLegend; label: 5' biotin or Cy5; G4
T5 sequence: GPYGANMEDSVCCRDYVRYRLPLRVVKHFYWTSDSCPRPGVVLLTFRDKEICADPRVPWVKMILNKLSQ
Description: as §1, §2, §3

[3] = target: sCD25 (soluble interleukin-2 receptor) (Homo sapiens, UniProt P01589 P01589:22-240); experiment: ELONA; DNA at 2x KD; settings: tags: Antikorper online; label: 5' biotin or Cy5; G4
Sequence of sCD25 (soluble interleukin-2 receptor) (P01589 22-240, one chain of several): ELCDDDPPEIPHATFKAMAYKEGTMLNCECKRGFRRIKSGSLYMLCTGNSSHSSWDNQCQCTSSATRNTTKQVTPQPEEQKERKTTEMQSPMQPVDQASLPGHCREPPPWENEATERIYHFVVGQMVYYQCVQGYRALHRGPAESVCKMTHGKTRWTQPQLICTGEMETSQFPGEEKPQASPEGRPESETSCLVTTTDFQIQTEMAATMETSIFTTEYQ
Description: as §1, §2, §3

CRP (C-reactive protein) = target: T6, CRP (C-reactive protein) (Homo sapiens, UniProt P02741 P02741:19-224); experiment: ELONA; DNA at 2x KD; settings: tags: BioRad; chain copies: 5; label: 5' biotin or Cy5; G4
T6 sequence: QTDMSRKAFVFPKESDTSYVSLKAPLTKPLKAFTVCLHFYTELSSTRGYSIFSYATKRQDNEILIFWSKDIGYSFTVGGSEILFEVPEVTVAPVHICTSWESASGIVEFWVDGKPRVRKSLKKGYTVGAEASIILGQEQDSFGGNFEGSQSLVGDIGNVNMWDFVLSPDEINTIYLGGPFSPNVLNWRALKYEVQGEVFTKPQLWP
Description: as §1, §2, §3

CXCL10 = CXCL10 (Homo sapiens, UniProt P02778 P02778:22-98); experiment: ELONA; DNA at 2x KD; settings: tags: Cell guidance system; label: 5' biotin or Cy5; G4
Sequence of CXCL10 (P02778 22-98, one chain of several): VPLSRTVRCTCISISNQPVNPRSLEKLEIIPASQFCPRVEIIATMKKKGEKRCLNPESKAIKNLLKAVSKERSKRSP
Description: as §1, §2, §3

[4] = target: HSA (human serum albumin) (Homo sapiens, UniProt P02768 P02768:25-609); experiment: ELONA; DNA at 2x KD; settings: tags: Sigma-Aldrich; label: 5' biotin or Cy5; G4
Sequence of HSA (human serum albumin) (P02768 25-609, one chain of several): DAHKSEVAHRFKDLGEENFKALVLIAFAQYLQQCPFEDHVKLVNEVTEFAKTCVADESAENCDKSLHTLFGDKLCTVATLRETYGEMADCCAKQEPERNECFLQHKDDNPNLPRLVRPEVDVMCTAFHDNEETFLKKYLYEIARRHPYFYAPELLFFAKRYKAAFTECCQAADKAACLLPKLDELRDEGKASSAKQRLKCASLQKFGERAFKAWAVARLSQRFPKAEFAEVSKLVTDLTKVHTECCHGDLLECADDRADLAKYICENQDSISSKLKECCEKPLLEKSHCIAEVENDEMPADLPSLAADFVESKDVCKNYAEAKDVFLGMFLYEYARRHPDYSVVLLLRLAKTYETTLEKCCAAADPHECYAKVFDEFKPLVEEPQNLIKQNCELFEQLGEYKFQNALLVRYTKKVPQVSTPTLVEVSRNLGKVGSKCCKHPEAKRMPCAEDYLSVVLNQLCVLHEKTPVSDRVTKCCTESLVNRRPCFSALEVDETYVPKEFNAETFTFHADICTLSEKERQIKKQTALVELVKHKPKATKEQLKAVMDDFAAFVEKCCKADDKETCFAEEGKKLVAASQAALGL
Description: as §1, §2, §3

CXCL9 (MIG) [5] = target: T3, CXCL9 (MIG); experiment: ELONA; n=2; settings: tags: Origene; immobilised on magnetic beads for flow cytometry; label: 5' biotin or Cy5; G4
Description: as §1
as §2, with “Binding of DNA to BSA background was subtracted from binding of DNA to protein sample.” left out
In parallel, the influence of indole (In) modification and azide without modification (E) on the affinity of aptamer SEQ ID NO: 4 (G123) was determined using ELONA and compared to the affinity of unmodified DNA (DNA). […] In the table, “+” represents successful binding, while “−” means no detection of binding, “n.d.” denotes not determined.

[6] = indole-clicked EdU at all N (28,44,47,49,50) [28,44,47,49,50 (indole-clicked EdU)]
[7] = indole-clicked EdU at all N [31,45,49,53 (indole-clicked EdU)]

With “CACGACGCAAGGGACCACAGGAGAGACTCACGGGCGGGCGACCTACTGTTCAGCCCAGACCGACAGCACGACACCGCAGAGGCA [I29 Naph]” the Kd ([1]; naphthalene-clicked EdU at all N [28,44,47,49,50 (naphthalene-clicked EdU)]) was 21 nM.

With “CACGACGCAAGGGACCACAGGAGAGACTCACGGGCGGGCGACCTACTGTTCAGCCCAGACCGACAGCACGACACCGCAGAGGCA [I29 In]” the Kd (CXCL11 (Homo sapiens); [6]) was 17 nM and the Kd [1, 6] was 12 nM.

For “CACGACGCAAGGGACCACAGGAGAGACTCACGGGCGGGCGACCTACTGTTCAGCCCAGACCGACAGCACGACACCGCAGAGGCA [I29 Phe]”, the Kd ([1]; phenol-clicked EdU at all N [28,44,47,49,50 (phenol-clicked EdU)]) was 177 nM.

Work on “CACGACGCAAGGGACCACAGGGAGGGAGGGTGGGCAAAGGGCCCTAAGTCCGTAACAAAAACACAGCACGACACCGCAGAGGCA [G123 In]” yielded a Kd (CXCL11 (Homo sapiens); [7]) of 73 nM and a Kd [1, 7] of 39 nM.

With “CACGACGCAAGGGACCACAGGAGAGACTCACGGGCGGGCGACCTACTGTTCAGCCCAGACCGACAGCACGACACCGCAGAGGCA [I29 BnFu]” the Kd ([1]; benzofurane-clicked EdU at all N [28,44,47,49,50 (benzofurane-clicked EdU)]) was 17 nM.

B1: G123.sc (ssDNA)
DNA: CACGACGCAAGGGACCACAGGAGGAGAGTAGGCGATACACGACGTAGCGCAGATAGGACCAAGCAGCACGACACCGCAGAGGCA
modifications: N = T or EdU [29,36,45,54 (T or EdU)]
B1: no binding (CXCL9 (MIG) [2]).

B2: G123 DNA (ssDNA)
DNA: CACGACGCAAGGGACCACAGGGAGGGAGGGTGGGCAAAGGGCCCTAAGTCCGTAACAAAAACACAGCACGACACCGCAGAGGCA
With B2 the Kd (CXCL11) was 249 nM, the binding result (CCL3) was “no binding” and the binding result (CXCL1) was “no binding”. B2: no binding (CCL17); no binding (CCL22); no binding [3]. B2: no binding (CRP (C-reactive protein)); no binding (CXCL10); no binding [4]. It also gave a Kd (CXCL9 (MIG) [5]) of 92 nM.
